Publication PMC7859239, “Conserved strategies of RNA polymerase I hibernation and activation” (Nature Communications, 2021)

B1: S. pombe Pol I subunit A135 (natural protein, UniProt Q9P7X8 1-1174, looked up)
chain: MSFQTLERERTFKNPPKDGTSFPDLQKAVKPHVDSFNALTNAGLLNYAVKEIGEKCAFDSITQEEGGALKFGNKISFRVDEVQIAKPMLSSRERSSINRKVYPAEARERLTTYKSRLVLKFSWSVNGGPRQSEMREVGMIPIMVRSNRCHLEGLSPAELIAHKEESEEMGGYFIVNGIEKLIRMLILPKRNHPTAIIRPSFANRGTSYSQYGLSIRCVRPDQSSLTNTLHYLNNGVTMFRFHWRKNEYLIPSMMILKALLETSDKEIFEGIVGKDLGNTFLTDRVELMLRAYKSYGLYSQTETLQYLGSKFRVVLGVAEDLTDVEVGRFLLQKVVLVHLREAKDKFRLLLFMIRKLYALVAGECCADNPDSPQHQEILLGGFLYGQILKEKIEDWLNSIRAQINLDVRRSAPGVDFSDRKYLTRVFSKINNDIGTKLQYFLSTGNLVSNTGLDLQQATGYTVVAEKLNFYRFLSHFRMVHRGAFFAELKTTTVRKLLPEAWGFMCPVHTPDGSPCGLLNHLARKCEIVTHPSDVSQIPSLLLSLGVDPPSVVGHESGWGCVQLDGKIVGWCTYKLAKHVADVLRLMKIEYAVKLRNGTATEPAKVPLDLEIGYVPPSHNGQYPGLYLFSNPARMVRPVKHISTGELDMLGPFEQVYMDIACFPKEIVPKVSTHVEYSPTNVLSIVANMTPFSDFNQSPRNMYQCQMGKQTMGTPGTALRYRTDNKLYRLQTGQTPVVRPKLHNTYGLDHYPNGTNAVVAVISYTGYDMEDAMILNKSAHERGFGYGTVYKGESFDLSQKRRRGEPVVHHFGFAPGSTPRREWLQKLDADGLPFIGIKLEDGDPIVAYYDESTGQNFIETYHGTEPGFVDEVRLLGNDVGDSECQQIHVKLRITRSPIIGDKFSSRHGQKGICSQKWPTVDMPFTESGMQPDIIINPHAFPSRMTIGMFIESLAGKAGACHGLAQDSTPFIYSEQQTAADYFGEQLVKAGYNYHGNEPMYSGITGQEMKADIYIGVVYYQRLRHMVSDKFQVRTTGPIHNLTRQPVKGRKRAGGIRFGEMERDAVIGHGTSFLMQDRLMNCSDYAQSWVCRDCGSIISIMSTISMNGVGSASEVRCRSCAKPALGLEDTSDIWQDGSGKKFVGGTNTTLIALPSVFNYLTAELTAMNIKMMLEVK
notes: RNA polymerase I subunit A135, S. pombe; source: endogenous, S. pombe, purified as part of Pol I (Ni-NTA, MonoQ, MonoS)
B2: S. pombe Pol I subunit AC40 with C-terminal flag-his tag (natural protein, UniProt O94616 1-348, looked up)
chain: MAAVDRSRTEISVLSDRVTDVGSVDFPGYYFDEDNIWDLDKFKKNLKVSITSLDQETMVFEISGIDASIANAFRRILIAEIPTLAFEFVYIINNTSIIQDEVLSHRIGLVPISADPDMFKWFQHPLPGQEATHTDYDTVVFSLNKKCEFNKNAATDEKDPKRLYVNSEVYSGDLIWKPQGRQEERFADNPIRVVNPDIVVAKLRPGQEIDLEAHAILGIGQDHAKFSPVATASYRLLPTIHILSPIEGEDAVKFQKCFPKGVIELEEGPDGKKQARVADVRKDTVSRECLRHPEFADKVQLGRVRDHYLFSVESTGIMKPDVLFIKSIAVLKSKCLAVKSSLQNISSD
notes: RNA polymerase I and III subunit AC40, S. pombe; source: endogenous, genomically tagged S. pombe strain, purified as part of Pol I (Ni-NTA, MonoQ, MonoS); not shown: 10xHis, C-terminal, kept
B3: S. pombe common RNA polymerase subunit Rpb12 (natural protein, UniProt P48011 1-63, looked up)
chain: MNHPTSTGGTAFNPPRPATMIYLCADCGARNTIQAKEVIRCRECGHRVMYKMRTKRMVQFEAR
notes: general (common) RNA polymerase subunit Rpb12, S. pombe; source: endogenous, S. pombe, purified as part of Pol I (Ni-NTA, MonoQ, MonoS)
B4: S. pombe Pol I subunit A43 (natural protein, UniProt O43036 1-173, looked up)
chain: MPDLSLYKQTVDLYLSIAPGHSRDPLNAIQEHMDSMILSKLPRINGIVLAYDNIRFLEKSAKVMYDSPFSFIWVRVDVLVFSPKKGDCLEGKINLVSPSHIGLLILGIFNASIPRKSIPKDWIFIEPDTTEEQGRWKTNDGNILEPGKDLEFVVDGIQREAGLTMVQGTLANS
notes: RNA polymerase I stalk subunit A43, S. pombe; Lacks the connector domain of the S. cerevisiae protein; also called stalk subunit A43; source: endogenous, S. pombe, purified as part of Pol I (Ni-NTA, MonoQ, MonoS)

Key:
[1] = target: T1, S. pombe Pol I subunit A190 (Schizosaccharomyces pombe (endogenous …, UniProt P15398 1-1689)); test: cryo-EM structure; dimer particles in the 'monomer' dataset of BS3-crosslinked Sp Pol I after SEC (5 mM HEPES pH 7.8, 1 mM MgCl2, 10 µM ZnCl2, 150 mM KCl, 5 mM DTT); C2 symmetry imposed; 4.5 Å; model by placing two monomers and rigid body fitting of subdomains; settings: both partners purified
T1 construct: RNA polymerase I subunit A190, S. pombe; source: endogenous, S. pombe, purified as part of Pol I (Ni-NTA, MonoQ, MonoS)

[2] = target: B1; test: as above; settings: both partners purified

T1 sequence (P15398 whole entry): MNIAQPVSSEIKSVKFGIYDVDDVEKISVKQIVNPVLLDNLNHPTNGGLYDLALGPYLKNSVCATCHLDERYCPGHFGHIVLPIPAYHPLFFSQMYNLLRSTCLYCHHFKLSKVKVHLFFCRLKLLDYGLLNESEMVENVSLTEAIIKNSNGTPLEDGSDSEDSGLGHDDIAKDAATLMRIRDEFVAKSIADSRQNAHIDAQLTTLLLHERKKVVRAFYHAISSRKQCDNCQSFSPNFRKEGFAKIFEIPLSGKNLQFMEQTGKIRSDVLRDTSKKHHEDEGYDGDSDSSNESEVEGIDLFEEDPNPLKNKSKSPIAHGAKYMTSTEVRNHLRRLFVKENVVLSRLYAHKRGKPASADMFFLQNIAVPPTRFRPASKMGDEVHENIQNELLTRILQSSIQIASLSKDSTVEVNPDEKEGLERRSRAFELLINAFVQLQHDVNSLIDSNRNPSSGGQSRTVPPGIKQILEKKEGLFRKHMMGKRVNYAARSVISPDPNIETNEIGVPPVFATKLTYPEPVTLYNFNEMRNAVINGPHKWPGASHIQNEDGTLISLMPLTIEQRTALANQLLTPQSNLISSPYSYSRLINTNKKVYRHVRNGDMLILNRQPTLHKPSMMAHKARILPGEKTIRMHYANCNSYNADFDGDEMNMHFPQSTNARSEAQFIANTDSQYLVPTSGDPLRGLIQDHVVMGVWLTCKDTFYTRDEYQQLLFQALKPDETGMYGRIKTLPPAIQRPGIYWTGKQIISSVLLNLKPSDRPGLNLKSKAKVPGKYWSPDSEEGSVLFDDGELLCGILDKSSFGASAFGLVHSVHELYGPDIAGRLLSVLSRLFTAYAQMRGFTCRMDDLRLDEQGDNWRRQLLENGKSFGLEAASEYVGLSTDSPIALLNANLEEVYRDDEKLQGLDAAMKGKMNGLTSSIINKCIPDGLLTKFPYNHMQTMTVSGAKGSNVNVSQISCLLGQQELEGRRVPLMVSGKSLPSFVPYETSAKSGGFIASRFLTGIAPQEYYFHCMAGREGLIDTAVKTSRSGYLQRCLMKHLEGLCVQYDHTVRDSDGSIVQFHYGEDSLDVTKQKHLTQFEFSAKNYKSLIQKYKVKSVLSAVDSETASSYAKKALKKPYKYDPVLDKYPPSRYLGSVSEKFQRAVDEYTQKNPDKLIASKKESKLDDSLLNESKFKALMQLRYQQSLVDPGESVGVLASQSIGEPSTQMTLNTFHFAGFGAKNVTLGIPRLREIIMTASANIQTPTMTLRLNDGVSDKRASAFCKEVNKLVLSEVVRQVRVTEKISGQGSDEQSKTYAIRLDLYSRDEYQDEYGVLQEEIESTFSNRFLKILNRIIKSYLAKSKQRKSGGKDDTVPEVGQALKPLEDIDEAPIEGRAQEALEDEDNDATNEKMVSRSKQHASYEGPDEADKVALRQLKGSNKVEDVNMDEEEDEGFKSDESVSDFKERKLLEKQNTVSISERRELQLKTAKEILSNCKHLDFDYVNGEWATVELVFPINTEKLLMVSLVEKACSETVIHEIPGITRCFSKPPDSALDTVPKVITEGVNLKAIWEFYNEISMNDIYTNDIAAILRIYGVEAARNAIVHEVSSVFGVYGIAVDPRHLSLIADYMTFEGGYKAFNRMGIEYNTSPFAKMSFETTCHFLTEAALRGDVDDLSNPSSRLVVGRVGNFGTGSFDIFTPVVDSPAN

Binder	binding result [1]	binding result [2]
B1	binds	
B2	binds	
B3	binds	
B4		binds
